Data reported in PMC8539536, “Generation of a Soluble Form of Human Endoglin Fused to Green Fluorescent Protein” (International Journal of Molecular Sciences, 2021).

Molecular target: the molecule itself
Test: SDS-PAGE under reducing and nonreducing conditions with Western blot; 3-day culture medium of CHO-K1 transfectants separated under reducing or nonreducing conditions; immunodetection with anti-GFP antibodies; positions of dimer and monomer compared

B1: endoglin–GFP fusion protein (extracellular domain of human endoglin fused with EGFP, from pEGFP–N1/Eng.EC) (domain or fragment, UniProt P17813 26-586, looked up)
chain: ETVHCDLQPVGPERGEVTYTTSQVSKGCVAQAPNAILEVHVLFLEFPTGPSQLELTLQASKQNGTWPREVLLVLSVNSSVFLHLQALGIPLHLAYNSSLVTFQEPPGVNTTELPSFPKTQILEWAAERGPITSAAELNDPQSILLRLGQAQGSLSFCMLEASQDMGRTLEWRPRTPALVRGCHLEGVAGHKEAHILRVLPGHSAGPRTVTVKVELSCAPGDLDAVLILQGPPYVSWLIDANHNMQIWTTGEYSFKIFPEKNIRGFKLPDTPQGLLGEARMLNASIVASFVELPLASIVSLHASSCGGRLQTSPAPIQTTPPKDTCSPELLMSLIQTKCADDAMTLVLKKELVAHLKCTITGLTFWDPSCEAEDRGDKFVLRSAYSSCGMQVSASMISNEAVVNILSSSSPQRKKVHCLNMDSLSFQLGLYLSPHFLQASNTIEPGQQSFVQVRVSPSVSEFLLQLDSCHLDLGPEGGTVELIQGRAAKGNCVSLLSPSPEGDPRFSFLLHFYTVPIPKTGTLSCTVALRPKTGSQDQEVHRTVFMRLNIISPDLSGCTSKG
notes: then a linker of 19 amino acids and 239 residues of GFP, 844 amino acids in all; Disulfide-linked dimer of ~275 kDa; glycosylated; also called Eng–GFP; source: CHO-K1, stably transfected with pEGFP–N1/Eng.EC, secreted, in culture medium; not shown: EGFP, C-terminal, kept
With B1 the “stoichiometry N” value was 2.
